The supplement of paper PMC7877785
± gives the uncertainty stated by the source.

Assay: self-splicing fitness, log relative to wild type (ln ratio); higher = more splicing; Tetrahymena group I intron in knt gene, E. coli kanamycin selection, DiMSum; sequences stand for … in CUCUCU…GGAGGGAAAAGUUAUCAGGCAUGCACCUGGUAGCUAGUCUUUAAACCAAUAGAUUGCAUCGGUUUAAAAGGCAAGACCGUCAAAUUGCGGGAAAGGGGUCAACAGCCGUUCAGUACCAAGUCUCAGGGGAAACUUUGAGAUGGCCUUGCAAAGGGUAUGGUAAUAAGCUGACGGACAUGGUCCUAACCACGCAGCCAAGUCCUAAGUCAACAGAUCUUCUGUUGAUAUGGAUGCAGUUCACAGACUAAAUGUCGGUCGGGGAAGAUGUAUUCUUCUCAUAAGAUAUAGUCGGACCUCUCCUUAAUGGGAGCUAGCGGAUGAAGUGAUGCAACACUGGAGCCGCUGGGAACUAAUUUGUAUGCGAAAGUAUAUUGAUUAGUUUUGGAGUACUCGUGGUCG
Outline: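 Library with all eight P1ex-region intron nucleotides randomised, intron inside the knt kanamycin-resistance gene on pET-22b(+), in E. coli BL21(DE3). Cells grew overnight at 37°C or 30°C on LB agar with or without 25 μg/mL kanamycin (plus 100 μg/mL carbenicillin, 50 μM IPTG, 0.2% rhamnose), in six replicate transformations. Pooled colonies were amplicon-sequenced on Illumina HiSeq 2500. DiMSum fitness is the error-weighted combination of wild-type-normalised replicate fold changes, kanamycin versus none.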

Sequence | self-splicing fitness (ln) (30 °C) | self-splicing fitness (ln) (37 °C)
CUUCAGCAAUAUUACGUGGU | -3.25 ± 0.21 | -2.22 ± 0.24
CUUCAGCAAUAUUACGUGUG | -1.1 ± 0.061 | -0.859 ± 0.076
CUUGAGCAAUAUUACGAGGG | -3.25 ± 0.3 | -2.37 ± 0.42
CUUGAGCAAUAUUACGAGUC | -4.15 ± 0.39 | -1.33 ± 0.17
CUUGAGCAAUAUUACGCACU | -3.64 ± 0.39 | -1.9 ± 0.44
CUUGAGCAAUAUUACGCGGU | -2.53 ± 0.33 | -2.78 ± 0.48
CUUGAGCAAUAUUACGCUGC | -2.39 ± 0.49 | –
CUUGAGCAAUAUUACGCUUA | -2.82 ± 0.29 | -3.02 ± 0.37
CUUGAGCAAUAUUACGGAAG | -2.62 ± 0.25 | -2.23 ± 0.28
CUUGAGCAAUAUUACGGCCA | -1.69 ± 0.23 | -2.78 ± 0.36
CUUGAGCAAUAUUACGGGAG | -3.95 ± 0.22 | -3.25 ± 0.26
CUUGAGCAAUAUUACGGGCU | – | -1.91 ± 0.25
CUUGAGCAAUAUUACGGUAG | -2.88 ± 0.11 | -0.826 ± 0.094
CUUGAGCAAUAUUACGGUAU | -3.17 ± 0.2 | -2.65 ± 0.26
CUUGAGCAAUAUUACGUACG | -1.44 ± 0.097 | -0.683 ± 0.1
CUUGAGCAAUAUUACGUAGC | -3.2 ± 0.2 | -2.4 ± 0.29
CUUGAGCAAUAUUACGUAUU | – | -3.02 ± 0.37
CUUGAGCAAUAUUACGUCAG | -1.6 ± 0.15 | -0.671 ± 0.17
CUUGAGCAAUAUUACGUCGU | -3.97 ± 0.18 | -2.75 ± 0.2
CUUGAGCAAUAUUACGUUAA | -2.47 ± 0.16 | -2.6 ± 0.22
CUUGAGCAAUAUUACGUUUG | -3.1 ± 0.16 | -2.26 ± 0.18
CUUUAGCAAUAUUACGAAAG | -3.18 ± 0.23 | -1.7 ± 0.28
CUUUAGCAAUAUUACGAAAU | -2.94 ± 0.36 | -1.99 ± 0.41
CUUUAGCAAUAUUACGAGAU | -3.83 ± 0.23 | -2.57 ± 0.22
CUUUAGCAAUAUUACGCACA | – | -1.19 ± 0.35

Sequence | self-splicing fitness (ln) (30 °C) | self-splicing fitness (ln) (37 °C)
CUUUAGCAAUAUUACGCGAU | -3.05 ± 0.24 | -0.751 ± 0.17
CUUUAGCAAUAUUACGCGCC | -3.07 ± 0.37 | -2.39 ± 0.45
CUUUAGCAAUAUUACGCUAA | -4.31 ± 0.46 | -3.2 ± 0.47
CUUUAGCAAUAUUACGCUAG | -3.45 ± 0.31 | -2.11 ± 0.27
CUUUAGCAAUAUUACGGAAC | – | -1.93 ± 0.48
CUUUAGCAAUAUUACGGAAG | -3.17 ± 0.19 | -2.8 ± 0.23
CUUUAGCAAUAUUACGGAUG | -0.333 ± 0.067 | 0.313 ± 0.098
CUUUAGCAAUAUUACGGCCG | -0.432 ± 0.19 | -0.348 ± 0.29
CUUUAGCAAUAUUACGGCGU | -3.31 ± 0.47 | -1.89 ± 0.26
CUUUAGCAAUAUUACGGGAG | -2.89 ± 0.18 | -2.57 ± 0.21
CUUUAGCAAUAUUACGGGUU | -3.22 ± 0.34 | -0.807 ± 0.19
CUUUAGCAAUAUUACGGUCU | -3.25 ± 0.2 | -3.94 ± 0.36
CUUUAGCAAUAUUACGUACA | -2.89 ± 0.22 | –
CUUUAGCAAUAUUACGUAUU | -3.07 ± 0.24 | -1.34 ± 0.21
CUUUAGCAAUAUUACGUCAA | -2.48 ± 0.35 | -2.67 ± 0.38
CUUUAGCAAUAUUACGUCGC | – | -1.58 ± 0.34
CUUUAGCAAUAUUACGUGAU | -2.8 ± 0.14 | -1.05 ± 0.15
GAAAAGCAAUAUUACGAAGC | -3.19 ± 0.22 | -2.65 ± 0.28
GAAAAGCAAUAUUACGACAC | -0.467 ± 0.14 | -0.346 ± 0.17
GAAAAGCAAUAUUACGAGUC | -2.16 ± 0.15 | -0.233 ± 0.1
GAAAAGCAAUAUUACGAUUC | -2.34 ± 0.17 | -1.42 ± 0.15
GAAAAGCAAUAUUACGCAAG | -2.02 ± 0.11 | -1.46 ± 0.14
GAAAAGCAAUAUUACGCCAC | -5.15 ± 0.38 | -2.7 ± 0.36
GAAAAGCAAUAUUACGCGAA | -2.75 ± 0.2 | -1.13 ± 0.18
GAAAAGCAAUAUUACGCGAG | -1.64 ± 0.058 | -0.497 ± 0.068

Sequence | self-splicing fitness (ln) (30 °C) | self-splicing fitness (ln) (37 °C)
GAAAAGCAAUAUUACGCUAU | -2.9 ± 0.21 | -0.854 ± 0.2
GAAAAGCAAUAUUACGCUUA | -2.27 ± 0.14 | -1.39 ± 0.14
GAAAAGCAAUAUUACGGAUG | -2.63 ± 0.1 | -1.14 ± 0.1
GAAAAGCAAUAUUACGGGCA | -0.677 ± 0.086 | -0.191 ± 0.093
GAAAAGCAAUAUUACGGGUC | -2.09 ± 0.14 | -2.58 ± 0.22
GAAAAGCAAUAUUACGGUAC | -1.94 ± 0.079 | -1.11 ± 0.09
GAAAAGCAAUAUUACGUCGC | -1.38 ± 0.08 | -0.835 ± 0.086
GAAAAGCAAUAUUACGUCGU | -0.785 ± 0.086 | -1.29 ± 0.12
GAACAGCAAUAUUACGAACA | -0.908 ± 0.1 | -0.166 ± 0.12
GAACAGCAAUAUUACGAUAG | -3.6 ± 0.14 | -0.972 ± 0.094
GAACAGCAAUAUUACGAUGA | -0.145 ± 0.077 | -0.155 ± 0.081
GAACAGCAAUAUUACGCAAC | -1.58 ± 0.097 | -0.355 ± 0.13
GAACAGCAAUAUUACGCAAU | -1.53 ± 0.11 | -0.769 ± 0.11
GAACAGCAAUAUUACGCACC | -0.638 ± 0.096 | 0.0849 ± 0.097
GAACAGCAAUAUUACGCAGC | -2.2 ± 0.29 | -1.16 ± 0.23
GAACAGCAAUAUUACGCCAG | -3.71 ± 0.15 | -3.05 ± 0.27
GAACAGCAAUAUUACGCCUA | -1.42 ± 0.086 | -0.336 ± 0.087
GAACAGCAAUAUUACGCCUG | -1.85 ± 0.13 | 0.185 ± 0.13
GAACAGCAAUAUUACGCGCA | -0.367 ± 0.06 | 0.0257 ± 0.081
GAACAGCAAUAUUACGCGCG | -0.924 ± 0.064 | -0.265 ± 0.085
GAACAGCAAUAUUACGCGGG | -1.87 ± 0.1 | -1.37 ± 0.11
GAACAGCAAUAUUACGCUGA | -3.29 ± 0.2 | -2.04 ± 0.14
GAACAGCAAUAUUACGCUUU | -2.71 ± 0.14 | -1.93 ± 0.15
GAACAGCAAUAUUACGGAAC | -1.44 ± 0.1 | -1.55 ± 0.13
GAACAGCAAUAUUACGGAUA | -2.51 ± 0.13 | -1.28 ± 0.12

Sequence | self-splicing fitness (ln) (30 °C) | self-splicing fitness (ln) (37 °C)
GAACAGCAAUAUUACGGCCC | -0.734 ± 0.27 | -0.265 ± 0.28
GAACAGCAAUAUUACGGCCG | -2.39 ± 0.11 | -0.46 ± 0.14
GAACAGCAAUAUUACGGUCA | -0.702 ± 0.062 | -1.05 ± 0.066
GAACAGCAAUAUUACGGUUA | -0.16 ± 0.059 | -0.275 ± 0.064
GAACAGCAAUAUUACGUACA | -0.915 ± 0.073 | -0.72 ± 0.082
GAACAGCAAUAUUACGUCCA | -0.934 ± 0.089 | -0.369 ± 0.1
GAACAGCAAUAUUACGUCGA | -0.66 ± 0.066 | -0.117 ± 0.076
GAACAGCAAUAUUACGUCUC | -2.17 ± 0.17 | -0.443 ± 0.16
GAACAGCAAUAUUACGUGAG | -0.394 ± 0.031 | -0.235 ± 0.053
GAACAGCAAUAUUACGUGUC | -3.49 ± 0.14 | -3.22 ± 0.17
GAACAGCAAUAUUACGUUAA | -0.997 ± 0.068 | -0.105 ± 0.08
GAACAGCAAUAUUACGUUUU | -3.06 ± 0.083 | -2.25 ± 0.11
GAAGAGCAAUAUUACGACCG | -2.29 ± 0.36 | –
GAAGAGCAAUAUUACGAGAG | -2.3 ± 0.12 | -3.22 ± 0.27
GAAGAGCAAUAUUACGAGAU | -3.35 ± 0.23 | -2.08 ± 0.19
GAAGAGCAAUAUUACGAUUC | -3.57 ± 0.26 | -2.45 ± 0.28
GAAGAGCAAUAUUACGCACG | -2.22 ± 0.1 | -1.71 ± 0.16
GAAGAGCAAUAUUACGCCGG | -2.66 ± 0.18 | -2.5 ± 0.29
GAAGAGCAAUAUUACGCGGC | -2.37 ± 0.27 | -1.8 ± 0.33
GAAGAGCAAUAUUACGCUAA | – | -2.22 ± 0.3
GAAGAGCAAUAUUACGGACU | -2.93 ± 0.22 | -1.14 ± 0.13
GAAGAGCAAUAUUACGGAUA | -2.15 ± 0.22 | -2.85 ± 0.43
GAAGAGCAAUAUUACGGAUG | -3.4 ± 0.45 | -1.09 ± 0.31
